Data taken from publication PMC5758883, “Analysis of the natively unstructured RNA/protein-recognition core in the Escherichia coli RNA degradosome and its interactions with regulatory RNA/Hfq complexes” (Nucleic Acids Research, 2017).

Key:
[1] = biological target: T1, RNase E 603–850 with a C-terminal hexahistidine tag (Escherichia coli, UniProt P21513 603-850); assay: SEC-MALS; co-expressed, co-purified ternary and binary complexes loaded at 5.6 and 4.0 mg/ml on Superdex 200 10/300; 50 mM Tris–HCl pH 7.5, 100 mM NaCl, 50 mM KCl, 5 mM MgCl2, 2 mM DTT; settings: both partners purified
T1 construct: also called Rne; source: E. coli BL21 (DE3), co-expressed with RhlB (pRSFDuet-1) with or without enolase (pET11-a); alone: RhlB and enolase removed on the column with 8 M urea; not shown: His6, C-terminal, kept
T1 sequence (looked up): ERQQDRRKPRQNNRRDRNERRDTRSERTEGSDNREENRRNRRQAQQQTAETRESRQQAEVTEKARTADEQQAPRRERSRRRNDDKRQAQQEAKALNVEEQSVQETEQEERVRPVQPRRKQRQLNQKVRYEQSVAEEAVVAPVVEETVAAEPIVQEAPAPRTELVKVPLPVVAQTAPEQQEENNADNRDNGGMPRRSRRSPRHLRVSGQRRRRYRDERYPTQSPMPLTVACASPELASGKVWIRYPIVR

[2] = biological target: the molecule itself; assay: native MS; native ESI and ion-mobility mass spectrometry of the co-purified ternary and binary complexes

B1: DEAD-box helicase RhlB (enzyme, Escherichia coli, UniProt P0A8J8 1-421, looked up)
chain: MSKTHLTEQKFSDFALHPKVVEALEKKGFHNCTPIQALALPLTLAGRDVAGQAQTGTGKTMAFLTSTFHYLLSHPAIADRKVNQPRALIMAPTRELAVQIHADAEPLAEATGLKLGLAYGGDGYDKQLKVLESGVDILIGTTGRLIDYAKQNHINLGAIQVVVLDEADRMYDLGFIKDIRWLFRRMPPANQRLNMLFSATLSYRVRELAFEQMNNAEYIEVEPEQKTGHRIKEELFYPSNEEKMRLLQTLIEEEWPDRAIIFANTKHRCEEIWGHLAADGHRVGLLTGDVAQKKRLRILDEFTRGDLDILVATDVAARGLHIPAVTHVFNYDLPDDCEDYVHRIGRTGRAGASGHSISLACEEYALNLPAIETYIGHSIPVSKYNPDALMTDLPKPLRLTRPRTGNGPRRTGAPRNRRRSG
notes: E. coli DEAD-box helicase RhlB; HDX-MS covers both RecA-like domains and the tail 400–421, so probably the whole protein; also called RhIB
In the case of B1, the “stoichiometry N” value [1] is reported as 1.

B2: enolase (enzyme, Escherichia coli)
chain: MSKIVKIIGREIIDSRGNPTVEAEVHLEGGFVGMAAAPSGASTGSREALELRDGDKSRFLGKGVTKAVAAVNGPIAQALIGKDAKDQAGIDKIMIDLDGTENKSKFGANAILAVSLANAKAAAAAKGMPLYEHIAELNGTPGKYSMPVPMMNIINGGEHADNNVDIQEFMIQPVGAKTVKEAIRMGSEVFHHLAKVLKAKGMNTAVGDEGGYAPNLGSNAEALAVIAEAVKAAGYELGKDITLAMDCAASEFYKDGKYVLAGEGNKAFTSEEFTHFLEELTKQYPIVSIEDGLDESDWDGFAYQTKVLGDKIQLVGDDLFVTNTKILKEGIEKGIANSILIKFNQIGSLTETLAAIKMAKDAGYTAVISHRSGETEDATIADLAVGTAAGQIKTGSMSRSDRVAKYNQLIRIEEALGEKAPYNGRKEIKGQA
notes: E. coli enolase; No tag is named for enolase in either construct; also called glycolytic enzyme enolase; enolase dimer; source: E. coli Rosetta (DE3), pETDuet, co-expressed and co-purified with His6-AR2–EBS
In the case of B2, the “stoichiometry N” value [1] is reported as 2 and the “stoichiometry N” value [2] is reported as 2.
